Legend:
nLuc:cGR2 = target: T1, nLuc:cGR2; assay: split firefly luciferase complementation in HEK293T cells; dimerization only with cognate ligand
T1 construct: Expressed in HEK293T cells from pcDNA3; also called Myc:gsg:nLuc:gs10:cGR2; cSplit of GR2 CISPA sensor
T1 chain: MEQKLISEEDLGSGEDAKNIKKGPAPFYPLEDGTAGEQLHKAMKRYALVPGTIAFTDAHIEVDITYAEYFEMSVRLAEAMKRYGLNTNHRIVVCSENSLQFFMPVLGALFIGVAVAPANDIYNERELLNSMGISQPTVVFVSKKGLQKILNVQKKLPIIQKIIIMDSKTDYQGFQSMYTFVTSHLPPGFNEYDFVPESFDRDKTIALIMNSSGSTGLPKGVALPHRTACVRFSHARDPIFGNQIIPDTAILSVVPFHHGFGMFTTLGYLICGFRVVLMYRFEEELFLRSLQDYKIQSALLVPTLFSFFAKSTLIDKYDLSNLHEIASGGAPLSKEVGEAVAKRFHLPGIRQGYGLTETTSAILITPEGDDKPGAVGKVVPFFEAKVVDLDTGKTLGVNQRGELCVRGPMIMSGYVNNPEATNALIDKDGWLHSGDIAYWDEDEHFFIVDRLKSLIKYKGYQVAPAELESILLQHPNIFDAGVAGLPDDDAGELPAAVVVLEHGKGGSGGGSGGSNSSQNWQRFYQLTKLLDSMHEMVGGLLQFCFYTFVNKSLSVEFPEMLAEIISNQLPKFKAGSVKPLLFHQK

nLuc:cERβ = target: T2, nLuc:cERβ; assay: split firefly luciferase complementation in HEK293T cells, ligand dose response (FIG. 2C)
T2 construct: Expressed in HEK293T cells from pcDNA3; also called Myc:gsg:nLuc:gs10:cERβ; cSplit of ERβ CISPA sensor
T2 chain: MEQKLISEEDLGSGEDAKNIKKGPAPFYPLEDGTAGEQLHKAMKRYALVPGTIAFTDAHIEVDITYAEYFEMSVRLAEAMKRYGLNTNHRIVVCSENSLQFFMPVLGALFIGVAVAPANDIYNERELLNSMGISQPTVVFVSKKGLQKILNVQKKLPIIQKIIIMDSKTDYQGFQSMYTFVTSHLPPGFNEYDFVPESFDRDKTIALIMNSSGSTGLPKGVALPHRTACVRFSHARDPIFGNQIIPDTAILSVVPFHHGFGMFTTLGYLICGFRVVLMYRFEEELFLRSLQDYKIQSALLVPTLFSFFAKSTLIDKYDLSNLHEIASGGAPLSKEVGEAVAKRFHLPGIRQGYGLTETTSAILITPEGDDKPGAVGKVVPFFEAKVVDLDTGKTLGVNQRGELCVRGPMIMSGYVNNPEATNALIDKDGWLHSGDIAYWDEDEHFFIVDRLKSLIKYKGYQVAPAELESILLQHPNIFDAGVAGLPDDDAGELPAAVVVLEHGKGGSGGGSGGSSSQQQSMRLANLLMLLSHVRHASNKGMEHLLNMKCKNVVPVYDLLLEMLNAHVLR

nLuc:cTRβ = target: T3, nLuc:cTRβ; assay: split firefly luciferase complementation in HEK293T cells, ligand dose response (FIG. 2D)
T3 construct: also called Myc:gsg:nLuc:gs10:cTRβ; cSplit of TRβ CISPA sensor
T3 chain: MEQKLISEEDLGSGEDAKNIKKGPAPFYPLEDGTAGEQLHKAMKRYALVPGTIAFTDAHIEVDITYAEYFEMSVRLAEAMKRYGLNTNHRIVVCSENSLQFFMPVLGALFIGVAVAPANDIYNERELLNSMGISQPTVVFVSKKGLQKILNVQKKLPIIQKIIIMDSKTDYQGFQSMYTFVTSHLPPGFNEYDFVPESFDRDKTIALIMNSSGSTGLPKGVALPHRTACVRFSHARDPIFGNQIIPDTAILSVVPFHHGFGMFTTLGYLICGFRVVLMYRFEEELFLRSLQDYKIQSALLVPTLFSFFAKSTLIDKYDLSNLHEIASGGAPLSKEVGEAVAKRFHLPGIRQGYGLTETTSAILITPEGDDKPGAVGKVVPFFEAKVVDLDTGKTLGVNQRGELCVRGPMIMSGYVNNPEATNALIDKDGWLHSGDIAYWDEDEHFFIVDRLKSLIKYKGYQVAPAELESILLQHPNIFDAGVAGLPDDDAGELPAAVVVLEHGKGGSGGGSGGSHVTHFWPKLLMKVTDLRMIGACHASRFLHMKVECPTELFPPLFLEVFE

nLuc:cPPARγ = target: T4, nLuc:cPPARγ; assay: split firefly luciferase complementation in HEK293T cells, ligand dose response (FIG. 2E)
T4 construct: Expressed in HEK293T cells from pcDNA3; also called Myc:gsg:nLuc:gs10:cPPARγ; cSplit of PPARγ CISPA sensor
T4 chain: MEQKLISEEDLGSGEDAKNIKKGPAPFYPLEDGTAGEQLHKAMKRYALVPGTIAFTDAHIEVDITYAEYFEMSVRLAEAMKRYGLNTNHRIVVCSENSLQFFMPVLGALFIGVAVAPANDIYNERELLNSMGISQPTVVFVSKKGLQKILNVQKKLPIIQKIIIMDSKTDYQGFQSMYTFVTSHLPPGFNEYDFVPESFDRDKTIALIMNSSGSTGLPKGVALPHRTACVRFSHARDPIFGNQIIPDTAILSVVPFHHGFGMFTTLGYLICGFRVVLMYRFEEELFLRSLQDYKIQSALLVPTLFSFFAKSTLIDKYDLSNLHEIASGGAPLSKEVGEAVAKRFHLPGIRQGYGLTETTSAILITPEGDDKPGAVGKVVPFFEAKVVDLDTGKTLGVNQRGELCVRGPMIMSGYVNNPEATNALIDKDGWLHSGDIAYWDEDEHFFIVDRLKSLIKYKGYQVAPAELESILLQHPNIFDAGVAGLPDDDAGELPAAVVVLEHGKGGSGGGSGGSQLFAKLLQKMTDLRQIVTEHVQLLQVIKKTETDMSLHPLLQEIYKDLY

nLuc:cLyn = target: T5, nLuc:cLyn; assay: split firefly luciferase complementation in HEK293T cells, dasatinib dose response (FIG. 3A)
T5 construct: Expressed in HEK293T cells from pcDNA3; also called Myc:gsg:nLuc:gs10:cLyn; cSplit of Lyn CISPA sensor

nLuc:cDHFR = target: T6, nLuc:cDHFR (human, UniProt P08659 2-491 = luciferase); assay: split firefly luciferase complementation in HEK293T cells, methotrexate or pralatrexate dose response (FIG. 3B)
T6 construct: Expressed in HEK293T cells from pcDNA3; also called Myc:gsg:nLuc:gs10:cDHFR; cSplit of DHFR CISPA sensor

B1: nGR2:cLuc (other)
chain: MLISLLEVIEPEVLYSGYDSTLPDTSTRLMSTLNRLGGRQVVSAVKWAKALPGFRNLHLDDQMTLLQYSWMSLMAFSLGWRSYKQSNGNMLCFAPDLVINEERMQLPYMYDQCQQMLKISSEFVRLQVSYDEYLCMKVLLLLSTVPKDGLKSQAVFDEIRMTYIKELGKAIVKREGGGSGGGSGGSTMTEKEIVDYVASQVTTAKKLRGGVVFVDEVPKGLTGKLDARKIREILIKAKKGGKIAVNSGSGYPYDVPDYA
notes: Expressed in HEK293T cells from pcDNA3; also called nGR2:gs10:cLuc:gsg:HA; nSplit of GR2 CISPA sensor
Q: Does B1 bind (nLuc:cGR2)?
A: binds

B2: nERβ:cLuc (other)
chain: MDALSPEQLVLTLLEAEPPHVLISRPSAPFTEASMMMSLTKLADKELVHMISWAKKIPGFVELSLFDQVRLLESCWMEVLMMGLMWRSIDHPGKLIFAPDLVLDRDEGKCVEGILEIFDMLLATTSRFRELKLQHKEYLCVKAMILLNSSMYPLVTATQDADSSRKLAHLLNAVTDALVWVIAKSGIGGSGGGSGGSTMTEKEIVDYVASQVTTAKKLRGGVVFVDEVPKGLTGKLDARKIREILIKAKKGGKIAVNSGSGYPYDVPDYA
notes: Expressed in HEK293T cells from pcDNA3; also called nERβ:gs10:cLuc:gsg:HA; nSplit of ERβ CISPA sensor
Q: Does B2 bind (nLuc:cERβ)?
A: binds

B3: nTRβ:cLuc (other)
chain: MHMEELQKSIGHKPEPTDEEWELIKTVTEAHVATNAQGSHWKQKRKFLPEDIGQAPIVNAPEGGKVDLEAFSHFTKIITPAITRVVDFAKKLPMFCELPCEDQIILLKGCCMEIMSLRAAVRYDPESETLTLNGEMAVTRGQLKNGGLGVVSDAIFDLGMSLSSFNLDDTEVALLQAVLLMSSDRPGLACVERIEKYQDSFLLAFEHYINYRKHGGSGGGSGGSTMTEKEIVDYVASQVTTAKKLRGGVVFVDEVPKGLTGKLDARKIREILIKAKKGGKIAVNSGSGYPYDVPDYA
notes: also called nTRβ:gs10:cLuc:gsg:HA; nSplit of TRβ CISPA sensor
Q: Does B3 bind (nLuc:cTRβ)?
A: binds

B4: nPPARγ:cLuc (other)
chain: MGSHMLNPESADLRALAKHLYDSYIKSFPLTKAKARAILTGKTTDKSPFVIYDMNSLMMGEDKIKFKHITPLQEQSKEVAIRIFQGCQFRSVEAVQEITEYAKSIPGFVNLDLNDQVTLLKYGVHEIIYTMLASLMNKDGVLISEGQGFMTREFLKSLRKPFGDFMEPKFEFAVKFNALELDDSDLAIFIAVIILSGDRPGLLNVKPIEDIQDNLLQALELQLKLNHPESSGGSGGGSGGSTMTEKEIVDYVASQVTTAKKLRGGVVFVDEVPKGLTGKLDARKIREILIKAKKGGKIAVNSGSGYPYDVPDYA
notes: Expressed in HEK293T cells from pcDNA3; also called nPPARγ:gs10:cLuc:gsg:HA; nSplit of PPARγ CISPA sensor
Q: Does B4 bind (nLuc:cPPARγ)?
A: binds

B5: nLyn:cLuc (other)
chain: MAWEIPRESIKLVKRLGAGQFGEVWMGYYNGGSGGGSGGSTMTEKEIVDYVASQVTTAKKLRGGVVFVDEVPKGLTGKLDARKIREILIKAKKGGKIAVNSGSGYPYDVPDYA
notes: Expressed in HEK293T cells from pcDNA3; also called nLyn:gs10:cLuc:gsg:HA; nSplit of Lyn CISPA sensor
Q: Does B5 bind (nLuc:cLyn)?
A: binds

B6: nDHFR:cLuc (other)
chain: MVGSLNCIVAVSQNMGIGKNGDLPWPPLRNEFRYFQRMTTTSSVEGKQNLVIMGKKTWFSIPEKNRPLKGRINLVLSRELKEPPQGAHFLSRSLDDALKLTEQPELANKVDMVWIVGGSSVYKEAMNHPGHLKLFVTRIMQDFESDTFFPEIDLEKYKLLPEYPGVLSDVQEEKGGSGGGSGGSTMTEKEIVDYVASQVTTAKKLRGGVVFVDEVPKGLTGKLDARKIREILIKAKKGGKIAVNSGSGYPYDVPDYA
notes: Expressed in HEK293T cells from pcDNA3; also called nDHFR:gs10:cLuc:gsg:HA; nSplit of DHFR CISPA sensor
Q: Does B6 bind (nLuc:cDHFR)?
A: binds

Source: patent US20250321223A1 (KEMIJSKI INSTITUT, published 2025)
